This is an account of results in publication PMC12374583 (2025).

The assay addresses CR3 (Homo sapiens, UniProt P11215). Nature of the assay: MST.

B1: Complement C3 (peptide)
chain: SSKITHRIHWESASLLR
One may read the Kd as the concentration at which binding is half-saturated. A high value points to weaker binding. The molecule B1 showed a Kd of 5.73 nM. This lies in the single-digit nanomolar range.
